Reference: the supplement of paper PMC9112550, “Optimization of the antimicrobial peptide Bac7 by deep mutational scanning” (BMC Biology, 2022)

Test system: Escherichia coli TOP10
Assay: shrunken log2 fold change of peptide-encoding DNA abundance (4.5 h post-induction vs induction); higher = less antimicrobial activity (less host growth inhibition)
Details: time post-induction: 4.5 h; library: site-saturation at positions 5, 18, 19, 20
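Note: peptides expressed intracellularly from a pBAD plasmid library in pooled LB shake-flask culture, induced with 0.3% L-arabinose, DNA abundance read by NGS, three biological replicates, DESeq2 with apeglm shrinkage.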

RRIRPRPPRLPRPRPRPSEYPRP
shrunken log2 fold change: -0.366

RRIRPRPPRLPRPRPRPSFCPRP
shrunken log2 fold change: 0.0813

RRIRPRPPRLPRPRPRPSGWPRP
shrunken log2 fold change: 0.57

RRIRPRPPRLPRPRPRPSMEPRP
shrunken log2 fold change: -0.157

RRIRPRPPRLPRPRPRPSMIPRP
shrunken log2 fold change: -0.547

RRIRPRPPRLPRPRPRPSMMPRP
shrunken log2 fold change: -0.412

RRIRPRPPRLPRPRPRPSNEPRP
shrunken log2 fold change: -0.406

RRIRPRPPRLPRPRPRPSNKPRP
shrunken log2 fold change: -0.56

RRIRPRPPRLPRPRPRPSPCPRP
shrunken log2 fold change: -0.0121

RRIRPRPPRLPRPRPRPSPDPRP
shrunken log2 fold change: 0.146

RRIRPRPPRLPRPRPRPSRFPRP
shrunken log2 fold change: 0.227

RRIRPRPPRLPRPRPRPSRGPRP
shrunken log2 fold change: 0.839

RRIRPRPPRLPRPRPRPSRKPRP
shrunken log2 fold change: 0.0349

RRIRPRPPRLPRPRPRPSRPPRP
shrunken log2 fold change: 0.133

RRIRPRPPRLPRPRPRPSRQPRP
shrunken log2 fold change: 0.357

RRIRPRPPRLPRPRPRPSSHPRP
shrunken log2 fold change: -0.417

RRIRPRPPRLPRPRPRPSTAPRP
shrunken log2 fold change: -0.105

RRIRPRPPRLPRPRPRPSVIPRP
shrunken log2 fold change: -0.00563

RRIRPRPPRLPRPRPRPSWPPRP
shrunken log2 fold change: 0.359

RRIRPRPPRLPRPRPRPTAAPRP
shrunken log2 fold change: 0.227

RRIRPRPPRLPRPRPRPTCKPRP
shrunken log2 fold change: -0.0419

RRIRPRPPRLPRPRPRPTETPRP
shrunken log2 fold change: 0.132

RRIRPRPPRLPRPRPRPTFAPRP
shrunken log2 fold change: 0.409

RRIRPRPPRLPRPRPRPTFWPRP
shrunken log2 fold change: 0.333

RRIRPRPPRLPRPRPRPTHHPRP
shrunken log2 fold change: 0.264

RRIRPRPPRLPRPRPRPTKFPRP
shrunken log2 fold change: -0.0516

RRIRPRPPRLPRPRPRPTKIPRP
shrunken log2 fold change: -0.0764

RRIRPRPPRLPRPRPRPTKPPRP
shrunken log2 fold change: 0.323

RRIRPRPPRLPRPRPRPTMDPRP
shrunken log2 fold change: -0.125

RRIRPRPPRLPRPRPRPTMEPRP
shrunken log2 fold change: 0.0735

RRIRPRPPRLPRPRPRPTMKPRP
shrunken log2 fold change: -0.179

RRIRPRPPRLPRPRPRPTNKPRP
shrunken log2 fold change: -0.208

RRIRPRPPRLPRPRPRPTNYPRP
shrunken log2 fold change: -0.542

RRIRPRPPRLPRPRPRPTREPRP
shrunken log2 fold change: 0.177

RRIRPRPPRLPRPRPRPTSHPRP
shrunken log2 fold change: -0.235

RRIRPRPPRLPRPRPRPTTKPRP
shrunken log2 fold change: 0.253

RRIRPRPPRLPRPRPRPTTWPRP
shrunken log2 fold change: 0.176

RRIRPRPPRLPRPRPRPTWKPRP
shrunken log2 fold change: -0.0108

RRIRPRPPRLPRPRPRPTYEPRP
shrunken log2 fold change: 0.0844

RRIRPRPPRLPRPRPRPTYHPRP
shrunken log2 fold change: -0.274

RRIRPRPPRLPRPRPRPTYWPRP
shrunken log2 fold change: -0.00192

RRIRPRPPRLPRPRPRPVACPRP
shrunken log2 fold change: -0.0233

RRIRPRPPRLPRPRPRPVAGPRP
shrunken log2 fold change: 0.308

RRIRPRPPRLPRPRPRPVCRPRP
shrunken log2 fold change: -0.0794

RRIRPRPPRLPRPRPRPVCWPRP
shrunken log2 fold change: 0.533

RRIRPRPPRLPRPRPRPVEMPRP
shrunken log2 fold change: 0.0666

RRIRPRPPRLPRPRPRPVFRPRP
shrunken log2 fold change: -0.332

RRIRPRPPRLPRPRPRPVFVPRP
shrunken log2 fold change: 0.0959

RRIRPRPPRLPRPRPRPVFWPRP
shrunken log2 fold change: 0.546

RRIRPRPPRLPRPRPRPVGIPRP
shrunken log2 fold change: 0.0618

RRIRPRPPRLPRPRPRPVGPPRP
shrunken log2 fold change: 0.427

RRIRPRPPRLPRPRPRPVHCPRP
shrunken log2 fold change: 0.046

RRIRPRPPRLPRPRPRPVHNPRP
shrunken log2 fold change: -0.038

RRIRPRPPRLPRPRPRPVHRPRP
shrunken log2 fold change: 0.0193

RRIRPRPPRLPRPRPRPVIVPRP
shrunken log2 fold change: -0.212

RRIRPRPPRLPRPRPRPVKPPRP
shrunken log2 fold change: -0.14

RRIRPRPPRLPRPRPRPVMCPRP
shrunken log2 fold change: 0.218

RRIRPRPPRLPRPRPRPVMKPRP
shrunken log2 fold change: -0.00931

RRIRPRPPRLPRPRPRPVQKPRP
shrunken log2 fold change: 0.0644

RRIRPRPPRLPRPRPRPVRWPRP
shrunken log2 fold change: 0.819

RRIRPRPPRLPRPRPRPVSRPRP
shrunken log2 fold change: 0.0925

RRIRPRPPRLPRPRPRPVSTPRP
shrunken log2 fold change: 0.13

RRIRPRPPRLPRPRPRPVTTPRP
shrunken log2 fold change: -0.0302

RRIRPRPPRLPRPRPRPWAKPRP
shrunken log2 fold change: -0.0178

RRIRPRPPRLPRPRPRPWAMPRP
shrunken log2 fold change: -0.223

RRIRPRPPRLPRPRPRPWEIPRP
shrunken log2 fold change: -0.00151

RRIRPRPPRLPRPRPRPWEQPRP
shrunken log2 fold change: 0.201

RRIRPRPPRLPRPRPRPWGEPRP
shrunken log2 fold change: 0.113

RRIRPRPPRLPRPRPRPWLTPRP
shrunken log2 fold change: -0.123

RRIRPRPPRLPRPRPRPWMAPRP
shrunken log2 fold change: -0.113

RRIRPRPPRLPRPRPRPWMRPRP
shrunken log2 fold change: 0.715

RRIRPRPPRLPRPRPRPWNVPRP
shrunken log2 fold change: -0.052

RRIRPRPPRLPRPRPRPWPMPRP
shrunken log2 fold change: -0.151

RRIRPRPPRLPRPRPRPWQDPRP
shrunken log2 fold change: 0.115

RRIRPRPPRLPRPRPRPWRIPRP
shrunken log2 fold change: -0.0585

RRIRPRPPRLPRPRPRPWRSPRP
shrunken log2 fold change: 0.0793

RRIRPRPPRLPRPRPRPWRVPRP
shrunken log2 fold change: 0.244

RRIRPRPPRLPRPRPRPWSHPRP
shrunken log2 fold change: -0.157

RRIRPRPPRLPRPRPRPWVMPRP
shrunken log2 fold change: 0.211

RRIRPRPPRLPRPRPRPWVYPRP
shrunken log2 fold change: -0.227

RRIRPRPPRLPRPRPRPWWRPRP
shrunken log2 fold change: 0.14

RRIRPRPPRLPRPRPRPWYLPRP
shrunken log2 fold change: -0.591

RRIRPRPPRLPRPRPRPWYPPRP
shrunken log2 fold change: -0.119

RRIRPRPPRLPRPRPRPYCIPRP
shrunken log2 fold change: -0.654

RRIRPRPPRLPRPRPRPYDMPRP
shrunken log2 fold change: -0.748

RRIRPRPPRLPRPRPRPYDPPRP
shrunken log2 fold change: -0.301

RRIRPRPPRLPRPRPRPYDTPRP
shrunken log2 fold change: 0.0749

RRIRPRPPRLPRPRPRPYEGPRP
shrunken log2 fold change: -0.0988

RRIRPRPPRLPRPRPRPYELPRP
shrunken log2 fold change: -0.0423

RRIRPRPPRLPRPRPRPYFGPRP
shrunken log2 fold change: -0.522

RRIRPRPPRLPRPRPRPYFHPRP
shrunken log2 fold change: -0.522

RRIRPRPPRLPRPRPRPYGMPRP
shrunken log2 fold change: -0.155

RRIRPRPPRLPRPRPRPYHLPRP
shrunken log2 fold change: -1.07

RRIRPRPPRLPRPRPRPYIVPRP
shrunken log2 fold change: -0.15

RRIRPRPPRLPRPRPRPYPFPRP
shrunken log2 fold change: -0.0133

RRIRPRPPRLPRPRPRPYPRPRP
shrunken log2 fold change: 0.0824

RRIRPRPPRLPRPRPRPYRDPRP
shrunken log2 fold change: 0.0239

RRIRPRPPRLPRPRPRPYSQPRP
shrunken log2 fold change: -1.06

RRIRPRPPRLPRPRPRPYSSPRP
shrunken log2 fold change: -0.282

RRIRPRPPRLPRPRPRPYTPPRP
shrunken log2 fold change: -0.447

RRIRPRPPRLPRPRPRPYTTPRP
shrunken log2 fold change: -0.52

RRIRPRPPRLPRPRPRPYVAPRP
shrunken log2 fold change: -0.465

RRIRPRPPRLPRPRPRPYVCPRP
shrunken log2 fold change: -0.73

RRIRPRPPRLPRPRPRPYWAPRP
shrunken log2 fold change: -0.365

RRIRPRPPRLPRPRPRPYWSPRP
shrunken log2 fold change: -0.324

RRIRPRPPRLPRPRPRPYYFPRP
shrunken log2 fold change: -0.427

RRIRQRPPRLPRPRPRPADAPRP
shrunken log2 fold change: 0.242

RRIRQRPPRLPRPRPRPAEFPRP
shrunken log2 fold change: -0.0119

RRIRQRPPRLPRPRPRPAFMPRP
shrunken log2 fold change: -0.0902

RRIRQRPPRLPRPRPRPAFSPRP
shrunken log2 fold change: 0.12

RRIRQRPPRLPRPRPRPAGDPRP
shrunken log2 fold change: 0.127

RRIRQRPPRLPRPRPRPAHGPRP
shrunken log2 fold change: 0.19

RRIRQRPPRLPRPRPRPAIAPRP
shrunken log2 fold change: 0.0382

RRIRQRPPRLPRPRPRPAIQPRP
shrunken log2 fold change: -0.679

RRIRQRPPRLPRPRPRPAKEPRP
shrunken log2 fold change: -0.0803

RRIRQRPPRLPRPRPRPAKYPRP
shrunken log2 fold change: -0.0291

RRIRQRPPRLPRPRPRPAMTPRP
shrunken log2 fold change: 0.00659

RRIRQRPPRLPRPRPRPAQDPRP
shrunken log2 fold change: 0.226

RRIRQRPPRLPRPRPRPAQEPRP
shrunken log2 fold change: 0.852

RRIRQRPPRLPRPRPRPARIPRP
shrunken log2 fold change: -0.0224

RRIRQRPPRLPRPRPRPASHPRP
shrunken log2 fold change: 0.189

RRIRQRPPRLPRPRPRPASMPRP
shrunken log2 fold change: -0.39

RRIRQRPPRLPRPRPRPASSPRP
shrunken log2 fold change: -0.196

RRIRQRPPRLPRPRPRPATNPRP
shrunken log2 fold change: -0.0811

RRIRQRPPRLPRPRPRPATTPRP
shrunken log2 fold change: 0.351

RRIRQRPPRLPRPRPRPAVRPRP
shrunken log2 fold change: -0.0154

RRIRQRPPRLPRPRPRPCARPRP
shrunken log2 fold change: -0.0014

RRIRQRPPRLPRPRPRPCASPRP
shrunken log2 fold change: -0.0156

RRIRQRPPRLPRPRPRPCATPRP
shrunken log2 fold change: -0.0476

RRIRQRPPRLPRPRPRPCCMPRP
shrunken log2 fold change: -0.42

RRIRQRPPRLPRPRPRPCCYPRP
shrunken log2 fold change: -0.0451

RRIRQRPPRLPRPRPRPCEEPRP
shrunken log2 fold change: -0.0216

RRIRQRPPRLPRPRPRPCFEPRP
shrunken log2 fold change: 0.0423

RRIRQRPPRLPRPRPRPCFVPRP
shrunken log2 fold change: -0.0859

RRIRQRPPRLPRPRPRPCGPPRP
shrunken log2 fold change: -0.141

RRIRQRPPRLPRPRPRPCGWPRP
shrunken log2 fold change: 0.502

RRIRQRPPRLPRPRPRPCHWPRP
shrunken log2 fold change: 0.018

RRIRQRPPRLPRPRPRPCIPPRP
shrunken log2 fold change: 0.00582

RRIRQRPPRLPRPRPRPCKAPRP
shrunken log2 fold change: -0.218

RRIRQRPPRLPRPRPRPCKWPRP
shrunken log2 fold change: -0.0434

RRIRQRPPRLPRPRPRPCLRPRP
shrunken log2 fold change: -0.379

RRIRQRPPRLPRPRPRPCLVPRP
shrunken log2 fold change: -0.252

RRIRQRPPRLPRPRPRPCNHPRP
shrunken log2 fold change: 0.037

RRIRQRPPRLPRPRPRPCNPPRP
shrunken log2 fold change: -0.0715

RRIRQRPPRLPRPRPRPCPSPRP
shrunken log2 fold change: 0.0332

RRIRQRPPRLPRPRPRPCQSPRP
shrunken log2 fold change: -0.0019

RRIRQRPPRLPRPRPRPCREPRP
shrunken log2 fold change: -0.0541

RRIRQRPPRLPRPRPRPCRVPRP
shrunken log2 fold change: -0.306

RRIRQRPPRLPRPRPRPCSDPRP
shrunken log2 fold change: -0.136

RRIRQRPPRLPRPRPRPCSPPRP
shrunken log2 fold change: 0.0218
